Tests used:
c-Kit = biological target: T1, c-Kit (Homo sapiens, UniProt P10721); assay: Millipore radiometric kinase activity assay, c-Kit (h); assay type: biochemical
T1 construct: purchased Millipore (assay service)
Method: (§1) A commercial radiometric assay service (Millipore, Billerica, Mass.) was used to test the specificity and potency of peptides containing a coupled transduction domain and therapeutic domain, hereinafter “complete peptides”). In these assays, if the kinase is not inhibited by an inhibitor peptide, a positively charged substrate is phosphorylated with a radiolabeled phosphate group from an ATP.
(§2) In a final reaction volume of 25 μL, c-Kit (h) (5-10 mU) is incubated with 8 mM MOPS pH 7.0, 0.2 mM EDTA, 10 mM MnCl2, 0.1 mg/mL poly(Glu, Tyr) 4:1, 10 mM MgAcetate and [γ-^33P-ATP] (specific activity approx. 500 cpm/pmol, concentration as required). The reaction is initiated by the addition of the MgATP mix. After incubation for 40 minutes at room temperature, the reaction is stopped by the addition of 5 μL of a 3% phosphoric acid solution. 10 μL of the reaction is then spotted onto a Filtermat A and washed three times for 5 minutes in 75 mM phosphoric acid and once in methanol prior to drying and scintillation counting.
(§3) IC50 values for inhibitor peptides were determined using Millipore's IC50Profiler Express service. The IC50 value was estimated from a 10-point curve of one-half log dilutions. For peptides tested for specificity, the concentration of the peptides that inhibited approximately 95% of MK2 activity was chosen to profile against a battery of kinases related to MK2, cell viability, or human disease from MilliporeKinaseProfiler service. In both assays, compounds were supplied in dimethylsulfoxide (DMSO). Every kinase activity measurement was conducted in duplicate.
(§4) Therapeutic inhibitor peptides were assayed for activity against human kinases related to MK2, cell viability, or human disease. The assays were performed using concentrations of therapeutic inhibitor peptides that yielded 2% to 8% of normal MK2 activity. Error is reported as the standard deviation between 2 samples, and “c” is rat AMPK whereas all other kinases used are human kinases.

EGFR = biological target: T2, EGFR (Homo sapiens, UniProt P00533); assay: Millipore radiometric kinase activity assay, EGFR (h); assay type: biochemical
T2 construct: purchased Millipore (assay service)
Method: as §1
as §2, with “EGFR” for “c-Kit”
as §3, §4

GSK3β = biological target: T3, GSK3β (Homo sapiens, UniProt P49841); assay: Millipore radiometric kinase activity assay, GSK3β (h); assay type: biochemical
T3 construct: purchased Millipore (assay service)
T3 sequence (P49841 whole entry): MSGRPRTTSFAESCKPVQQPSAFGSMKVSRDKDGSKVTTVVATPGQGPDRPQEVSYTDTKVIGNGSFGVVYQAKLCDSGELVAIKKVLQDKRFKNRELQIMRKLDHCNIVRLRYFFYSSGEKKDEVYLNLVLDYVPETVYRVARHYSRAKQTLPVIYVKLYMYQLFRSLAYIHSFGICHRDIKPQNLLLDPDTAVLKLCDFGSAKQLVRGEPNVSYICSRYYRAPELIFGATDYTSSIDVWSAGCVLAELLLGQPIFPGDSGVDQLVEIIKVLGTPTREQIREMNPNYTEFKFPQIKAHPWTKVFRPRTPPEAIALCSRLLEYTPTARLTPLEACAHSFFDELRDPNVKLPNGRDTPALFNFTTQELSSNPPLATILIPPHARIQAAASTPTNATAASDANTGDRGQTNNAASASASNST
Method: as §1
as §2, with “GSK3β” for “c-Kit”, “20 μM […](p)EDEEE [SEQ ID NO: 57] (phospho GS2 peptide),” for “10 mM MnCl2, 0.1 mg/mL poly(Glu, Tyr) 4:1,”, “P30 filtermat” for “Filtermat A”, “50” for “75”
as §3, §4

Met = biological target: T4, Met (Homo sapiens, UniProt P08581); assay: Millipore radiometric kinase activity assay, Met (h); assay type: biochemical
T4 construct: purchased Millipore (radiometric assay service)
T4 sequence (P08581 25-1390): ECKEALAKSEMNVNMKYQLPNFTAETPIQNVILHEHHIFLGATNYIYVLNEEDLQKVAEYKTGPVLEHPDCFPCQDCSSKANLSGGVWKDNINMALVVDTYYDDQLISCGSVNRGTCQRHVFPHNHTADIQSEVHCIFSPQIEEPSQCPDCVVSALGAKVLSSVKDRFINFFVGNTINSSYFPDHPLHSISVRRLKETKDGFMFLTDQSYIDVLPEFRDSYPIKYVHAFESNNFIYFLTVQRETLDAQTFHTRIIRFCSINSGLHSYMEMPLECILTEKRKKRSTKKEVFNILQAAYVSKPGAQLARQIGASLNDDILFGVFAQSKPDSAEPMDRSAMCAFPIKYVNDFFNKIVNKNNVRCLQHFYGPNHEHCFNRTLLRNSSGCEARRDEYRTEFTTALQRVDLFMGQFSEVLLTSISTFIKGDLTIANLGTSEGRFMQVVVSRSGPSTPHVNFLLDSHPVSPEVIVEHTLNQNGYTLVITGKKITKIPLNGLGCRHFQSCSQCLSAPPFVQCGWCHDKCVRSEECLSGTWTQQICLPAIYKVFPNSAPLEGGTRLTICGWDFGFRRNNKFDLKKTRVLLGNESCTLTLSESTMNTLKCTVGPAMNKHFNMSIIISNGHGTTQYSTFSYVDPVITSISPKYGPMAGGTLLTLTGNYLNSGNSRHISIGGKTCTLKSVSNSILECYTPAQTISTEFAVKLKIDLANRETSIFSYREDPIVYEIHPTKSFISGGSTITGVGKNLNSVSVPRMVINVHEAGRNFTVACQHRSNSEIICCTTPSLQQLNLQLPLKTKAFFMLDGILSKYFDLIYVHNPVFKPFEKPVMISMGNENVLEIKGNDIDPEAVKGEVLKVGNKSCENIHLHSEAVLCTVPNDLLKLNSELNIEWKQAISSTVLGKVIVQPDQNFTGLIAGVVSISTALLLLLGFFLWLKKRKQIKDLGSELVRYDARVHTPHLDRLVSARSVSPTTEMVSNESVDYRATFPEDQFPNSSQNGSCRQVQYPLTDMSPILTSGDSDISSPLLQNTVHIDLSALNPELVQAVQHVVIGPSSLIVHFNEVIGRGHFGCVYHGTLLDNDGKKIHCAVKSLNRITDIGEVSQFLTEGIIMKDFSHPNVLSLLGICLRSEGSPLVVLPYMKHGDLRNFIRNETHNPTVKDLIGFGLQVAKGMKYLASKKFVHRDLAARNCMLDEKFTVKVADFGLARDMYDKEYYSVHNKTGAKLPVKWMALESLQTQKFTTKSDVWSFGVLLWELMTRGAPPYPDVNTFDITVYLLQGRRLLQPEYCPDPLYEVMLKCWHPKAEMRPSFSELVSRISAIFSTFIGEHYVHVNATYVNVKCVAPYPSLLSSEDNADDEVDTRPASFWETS
Method: as §1
as §2, with “Met” for “c-Kit”, “250 μM […] [SEQ ID NO: 56],” for “10 mM MnCl2, 0.1 mg/mL poly(Glu, Tyr) 4:1,”, “P30 filtermat” for “Filtermat A”
as §3, §4

CDK1/cyclinB = biological target: T5, CDK1/cyclinB (Homo sapiens, UniProt P06493); assay: Millipore radiometric kinase activity assay, CDK1/cyclinB (h); assay type: biochemical
T5 construct: purchased Millipore (assay service)
T5 sequence (P06493 whole entry): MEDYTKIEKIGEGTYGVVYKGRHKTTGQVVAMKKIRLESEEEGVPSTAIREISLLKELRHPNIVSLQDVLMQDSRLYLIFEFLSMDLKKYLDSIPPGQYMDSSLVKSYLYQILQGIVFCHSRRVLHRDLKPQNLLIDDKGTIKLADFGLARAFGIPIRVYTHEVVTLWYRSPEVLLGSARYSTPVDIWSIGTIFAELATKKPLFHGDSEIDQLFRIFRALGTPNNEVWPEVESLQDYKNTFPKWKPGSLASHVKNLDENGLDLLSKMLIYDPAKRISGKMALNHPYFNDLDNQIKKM
T5 sequence (P14635 whole entry partner): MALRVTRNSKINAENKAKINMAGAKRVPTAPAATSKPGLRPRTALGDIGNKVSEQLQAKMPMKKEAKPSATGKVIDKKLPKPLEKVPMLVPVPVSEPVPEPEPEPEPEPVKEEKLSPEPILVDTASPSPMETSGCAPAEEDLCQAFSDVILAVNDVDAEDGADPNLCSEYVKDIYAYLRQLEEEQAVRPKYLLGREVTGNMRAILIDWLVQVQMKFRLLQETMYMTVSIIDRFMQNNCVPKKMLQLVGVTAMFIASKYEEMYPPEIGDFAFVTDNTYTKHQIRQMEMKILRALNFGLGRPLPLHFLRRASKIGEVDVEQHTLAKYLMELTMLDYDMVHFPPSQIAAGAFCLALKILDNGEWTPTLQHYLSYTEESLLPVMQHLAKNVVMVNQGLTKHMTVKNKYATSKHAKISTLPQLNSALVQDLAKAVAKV
Method: as §1
as §2, with “CDK1/cyclinB” for “c-Kit”, “EDTA,” for “EDTA, 10 mM MnCl2,”, “histone H1,” for “poly(Glu, Tyr) 4:1,”, “P30 filtermat” for “Filtermat A”
as §3, §4

AMPK = assay: Millipore radiometric kinase activity assay, AMPK (r); assay type: biochemical; details: rat AMPK
Method: as §1
as §2, with “AMPK (r)” for “μL, c-Kit (h)”, “32” for “8”, “HEPES” for “MOPS”, “7.4, 0.65” for “7.0, 0.2”, “DTT, 0.012% Brij-35, 200 μM AMP, 200 μM […] [SEQ ID NO: 49],” for “EDTA, 10 mM MnCl2, 0.1 mg/mL poly(Glu, Tyr) 4:1,”, “P30 filtermat” for “Filtermat A”
as §3, §4

43 kinases = assay: Specificity profile against battery of 43 kinases (Millipore KinaseProfiler); assay type: biochemical, human
Method: as §1, §3, §4

T1 sequence (P10721 26-976): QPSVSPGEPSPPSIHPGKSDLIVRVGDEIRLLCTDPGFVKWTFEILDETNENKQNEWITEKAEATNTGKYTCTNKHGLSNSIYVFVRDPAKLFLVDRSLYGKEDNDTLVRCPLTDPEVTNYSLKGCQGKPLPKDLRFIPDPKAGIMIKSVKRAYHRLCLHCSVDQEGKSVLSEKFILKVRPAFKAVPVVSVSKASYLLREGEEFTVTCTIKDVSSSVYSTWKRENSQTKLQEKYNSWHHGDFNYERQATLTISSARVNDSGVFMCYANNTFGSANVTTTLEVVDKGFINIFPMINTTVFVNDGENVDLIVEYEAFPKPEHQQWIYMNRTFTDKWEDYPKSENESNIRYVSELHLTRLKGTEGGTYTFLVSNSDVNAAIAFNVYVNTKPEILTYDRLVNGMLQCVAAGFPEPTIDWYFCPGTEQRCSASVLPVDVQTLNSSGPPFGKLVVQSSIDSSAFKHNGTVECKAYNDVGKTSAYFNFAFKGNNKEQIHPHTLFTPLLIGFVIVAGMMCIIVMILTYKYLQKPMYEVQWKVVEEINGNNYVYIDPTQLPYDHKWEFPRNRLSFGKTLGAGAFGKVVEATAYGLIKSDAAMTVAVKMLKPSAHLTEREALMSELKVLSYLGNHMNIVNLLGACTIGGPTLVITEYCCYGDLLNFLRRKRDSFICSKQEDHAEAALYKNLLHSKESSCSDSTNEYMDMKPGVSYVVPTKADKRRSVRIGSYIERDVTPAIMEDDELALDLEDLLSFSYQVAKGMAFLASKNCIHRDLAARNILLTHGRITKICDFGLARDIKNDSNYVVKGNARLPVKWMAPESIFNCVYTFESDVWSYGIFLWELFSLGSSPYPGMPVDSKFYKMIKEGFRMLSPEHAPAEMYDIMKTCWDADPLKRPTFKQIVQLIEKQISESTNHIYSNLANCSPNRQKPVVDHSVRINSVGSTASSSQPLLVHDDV

Sequence	cKit Kinase Activity (%) (+SD %) (c-Kit; peptide 30 μM)	cKit Kinase Activity (%) (+SD %) (c-Kit; peptide 100 μM)	EGFR Kinase Activity (%) (+SD %) (EGFR; peptide 30 μM)	EGFR Kinase Activity (%) (+SD %) (EGFR; peptide 100 μM)	GSK3β Kinase Activity (%) (+SD %) (GSK3β; peptide 30 μM)	GSK3β Kinase Activity (%) (+SD %) (GSK3β; peptide 100 μM)	Met Kinase Activity (%) (+SD %) (Met; peptide 30 μM)	Met Kinase Activity (%) (+SD %) (Met; peptide 100 μM)	CDK1/cyclin B Kinase Activity (%) (+SD %) (CDK1/cyclinB; peptide 30 μM)	CDK1/cyclin B Kinase Activity (%) (+SD %) (CDK1/cyclinB; peptide 100 μM)	AMPK Kinase Activity (%) (+SD %) (AMPK; peptide 30 μM)	AMPK Kinase Activity (%) (+SD %) (AMPK; peptide 100 μM)	Percentage of the 43 kinases Tested with less than 20% Activity (43 kinases; Concentration Tested 30 μM) [%]	Percentage of the 43 kinases Tested with less than 20% Activity (43 kinases; Concentration Tested 100 μM) [%]
WLRRIKAWLRRIKALNRQLGVAA	23 (2) %	42 (3) %	10 (4) %	18 (2) %	129 (2) %	188 (4) %	30 (1) %	17 (3) %	17 (0) %	36 (2) %	36 (4) %	101 (6) %	47	
KAFAKLAARLYRKALARQLGVAA		31 (6) %		16 (1) %		184 (1) %		22 (3) %		55 (3) %		118 (7) %		
FAKLAARLYRKALARQLGVAA														37
